Source: article PMC11695602 (Communications Biology, 2025)
One block for each binder: values may come before it.

How the values were obtained:
[1] = biological target: T1, recombinant human CTNNA3 (CTNNA3-FLAG) (human, UniProt Q9UI47-1 1-895); test: co-IP
T1 sequence (looked up): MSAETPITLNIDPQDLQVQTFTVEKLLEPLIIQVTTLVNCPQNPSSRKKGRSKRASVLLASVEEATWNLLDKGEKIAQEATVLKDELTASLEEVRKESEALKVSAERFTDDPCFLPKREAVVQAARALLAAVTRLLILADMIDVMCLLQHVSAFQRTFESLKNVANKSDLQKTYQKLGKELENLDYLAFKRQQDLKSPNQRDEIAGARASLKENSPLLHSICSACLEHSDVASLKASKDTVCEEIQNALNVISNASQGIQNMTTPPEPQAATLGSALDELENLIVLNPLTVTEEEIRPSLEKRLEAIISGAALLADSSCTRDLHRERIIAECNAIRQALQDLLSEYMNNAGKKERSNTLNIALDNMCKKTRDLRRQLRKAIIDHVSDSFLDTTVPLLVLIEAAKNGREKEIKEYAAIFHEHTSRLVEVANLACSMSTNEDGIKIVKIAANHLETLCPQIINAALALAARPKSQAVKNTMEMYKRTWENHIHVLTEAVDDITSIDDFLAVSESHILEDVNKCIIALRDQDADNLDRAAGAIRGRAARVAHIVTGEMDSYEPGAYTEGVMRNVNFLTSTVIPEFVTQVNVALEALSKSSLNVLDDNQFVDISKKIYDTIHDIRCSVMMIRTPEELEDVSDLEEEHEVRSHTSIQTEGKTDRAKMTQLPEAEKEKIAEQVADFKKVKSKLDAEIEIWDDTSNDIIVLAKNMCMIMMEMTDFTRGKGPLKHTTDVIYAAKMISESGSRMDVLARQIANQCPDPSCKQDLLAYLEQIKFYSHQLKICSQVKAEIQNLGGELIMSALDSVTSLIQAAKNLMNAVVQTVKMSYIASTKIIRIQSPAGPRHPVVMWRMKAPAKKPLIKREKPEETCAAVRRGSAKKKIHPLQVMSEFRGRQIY

[2] = biological target: recombinant human p53 (p53-FLAG) (human, UniProt P04637 1-393); test: co-IP
[3] = biological target: T1, recombinant human CTNNA3 (CTNNA3-FLAG); test: BLI
[4] = biological target: T1, recombinant human CTNNA3 (CTNNA3-FLAG); test: MST

recombinant human p53 (p53-FLAG), sequence (P04637 whole entry): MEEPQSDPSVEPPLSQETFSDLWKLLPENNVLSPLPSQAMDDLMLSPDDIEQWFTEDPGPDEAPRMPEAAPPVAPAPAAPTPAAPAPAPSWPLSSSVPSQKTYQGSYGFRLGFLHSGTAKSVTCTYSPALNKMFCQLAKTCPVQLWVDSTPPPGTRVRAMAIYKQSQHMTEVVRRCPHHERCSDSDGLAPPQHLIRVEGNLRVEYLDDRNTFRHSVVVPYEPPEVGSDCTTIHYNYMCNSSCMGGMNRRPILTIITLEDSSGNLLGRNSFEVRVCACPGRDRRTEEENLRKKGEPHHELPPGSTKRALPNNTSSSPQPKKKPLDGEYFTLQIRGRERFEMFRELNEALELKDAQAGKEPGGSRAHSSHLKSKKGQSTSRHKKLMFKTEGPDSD

binding result [1]: binds
binding result [2]: binds
B1: recombinant human FLAG-tagged fortilin (fortilin-FLAG) (natural protein, UniProt P13693 1-172, looked up)
chain: MIIYRDLISHDEMFSDIYKIREIADGLCLEVEGKMVSRTEGNIDDSLIGGNASAEGPEGEGTESTVITGVDIVMNHHLQETSFTKEAYKKYIKDYMKSIKGKLEEQRPERVKPFMTGAAEQIKHILANFKNYQFFIGENMNPDGMVALLDYREDGVTPYMIFFKDGLEMEKC

Kd [3]: 36.1 nM
B2: recombinant human fortilin (rh-fortilin), Strep-tagged, biotinylated (natural protein, UniProt P13693 1-172, looked up)
chain: MIIYRDLISHDEMFSDIYKIREIADGLCLEVEGKMVSRTEGNIDDSLIGGNASAEGPEGEGTESTVITGVDIVMNHHLQETSFTKEAYKKYIKDYMKSIKGKLEEQRPERVKPFMTGAAEQIKHILANFKNYQFFIGENMNPDGMVALLDYREDGVTPYMIFFKDGLEMEKC
modifications: biotin

Kd [4]: 33.2 nM
B3: recombinant human fortilin (rh-fortilin), Strep-tagged, red-maleimide-labelled (natural protein, UniProt P13693 1-172, looked up)
chain: MIIYRDLISHDEMFSDIYKIREIADGLCLEVEGKMVSRTEGNIDDSLIGGNASAEGPEGEGTESTVITGVDIVMNHHLQETSFTKEAYKKYIKDYMKSIKGKLEEQRPERVKPFMTGAAEQIKHILANFKNYQFFIGENMNPDGMVALLDYREDGVTPYMIFFKDGLEMEKC
modifications: red-maleimide fluorescent dye (Monolith red-maleimide 2nd generation protein labeling kit)
